{"source": "paper PMC5925078", "about": "(2018)", "key": {"[1]": {"target": "T1, TNFR2 variant in which the intracellular binding site for TRAF2 has been substituted by YFP (UniProt P20333 23-461)", "T1 chain": "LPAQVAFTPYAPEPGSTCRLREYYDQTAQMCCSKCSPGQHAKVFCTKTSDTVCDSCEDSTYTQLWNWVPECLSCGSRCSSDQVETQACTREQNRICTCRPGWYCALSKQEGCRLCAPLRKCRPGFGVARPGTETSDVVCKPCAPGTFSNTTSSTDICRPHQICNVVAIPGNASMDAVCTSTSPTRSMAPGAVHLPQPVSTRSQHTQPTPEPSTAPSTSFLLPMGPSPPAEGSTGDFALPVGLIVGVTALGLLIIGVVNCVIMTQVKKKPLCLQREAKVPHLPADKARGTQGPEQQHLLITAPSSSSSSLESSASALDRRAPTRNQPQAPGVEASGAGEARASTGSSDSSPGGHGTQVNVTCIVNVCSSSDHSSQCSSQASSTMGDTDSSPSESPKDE", "experiment": "cells co-expressing PGRN"}, "[2]": {"target": "T1, TNFR2 variant in which the …", "experiment": "cells, second transfection empty vector"}}, "data": [{"binder": "GpL-Flag-TNC-TNF (ligand) ACGCAAAPDIKDLLSRLEELEGLVSSLREQSDKPVAHVVANPQAEGQLQWLNRRANALLANGVELRDNQLVVPSEGLYLIYSQVLFKGQGCPSTHVLLTHTISRIAVSYQTKVNLLSAIKSPCQRETPEGAEAKPWYEPIYLGGVFQLEKGDRLSAEINRPDYLDFAESGQVYFGIIAL", "values": [{"measurement": "Kd", "setting": "[1]", "result": 0.049, "unit": "nM"}, {"measurement": "Kd", "setting": "[2]", "result": 0.036, "unit": "nM"}]}]}
